From publication PMC10397247

Tests used:
Test in all cases: two-hybrid library CCNG1;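 note: natural log of median RNA to DNA barcode read ratio; higher means stronger binding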
P4A-bP = target: T1, P4A-bP
T1 chain: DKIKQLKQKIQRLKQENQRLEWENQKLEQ

P3A-bP = target: T2, P3A-bP
T2 chain: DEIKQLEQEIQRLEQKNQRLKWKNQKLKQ

P5A-bP = target: T3, P5A-bP
T3 chain: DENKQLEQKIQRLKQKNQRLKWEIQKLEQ

P9A-bP = target: T4, P9A-bP
T4 chain: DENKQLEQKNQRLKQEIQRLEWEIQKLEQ

P6A-bP = target: T5, P6A-bP
T5 chain: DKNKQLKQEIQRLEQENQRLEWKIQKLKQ

P2A-bP = target: T6, P2A-bP
T6 chain: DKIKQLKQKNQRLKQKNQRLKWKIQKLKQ

P7A-bP = target: T7, P7A-bP
T7 chain: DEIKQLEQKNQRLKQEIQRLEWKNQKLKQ

P8A-bP = target: T8, P8A-bP
T8 chain: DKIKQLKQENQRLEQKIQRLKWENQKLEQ

4H3974-bA = target: T9, 4H3974-bA
T9 chain: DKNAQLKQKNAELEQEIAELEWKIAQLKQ

4H3907-bA = target: T10, 4H3907-bA
T10 chain: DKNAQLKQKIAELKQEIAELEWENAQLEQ

4H470-bA = target: T11, 4H470-bA
T11 chain: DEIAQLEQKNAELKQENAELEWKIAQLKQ

4H363-bA = target: T12, 4H363-bA
T12 chain: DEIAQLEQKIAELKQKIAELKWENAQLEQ

4H344-bA = target: T13, 4H344-bA
T13 chain: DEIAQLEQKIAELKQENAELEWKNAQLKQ

4H2745-bA = target: T14, 4H2745-bA
T14 chain: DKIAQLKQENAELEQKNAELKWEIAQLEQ

4H3961-bA = target: T15, 4H3961-bA
T15 chain: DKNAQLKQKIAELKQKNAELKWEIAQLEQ

P1mSN = target: T16, P1mSN
T16 chain: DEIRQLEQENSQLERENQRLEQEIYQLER

4H235-bN = target: T17, 4H235-bN
T17 chain: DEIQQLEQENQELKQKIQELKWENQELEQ

4H2253-bN = target: T18, 4H2253-bN
T18 chain: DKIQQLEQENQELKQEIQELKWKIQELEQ

4H56-bN = target: T19, 4H56-bN
T19 chain: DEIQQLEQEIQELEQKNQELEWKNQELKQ

4H3297-bN = target: T20, 4H3297-bN
T20 chain: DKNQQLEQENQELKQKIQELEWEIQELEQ

4H2518-bN = target: T21, 4H2518-bN
T21 chain: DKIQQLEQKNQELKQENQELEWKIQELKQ

4H264-bN = target: T22, 4H264-bN
T22 chain: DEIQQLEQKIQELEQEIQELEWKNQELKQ

4H730-bN = target: T23, 4H730-bN
T23 chain: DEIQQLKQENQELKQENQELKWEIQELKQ

4H3041-bN = target: T24, 4H3041-bN
T24 chain: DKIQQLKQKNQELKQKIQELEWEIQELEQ

4H932-bN = target: T25, 4H932-bN
T25 chain: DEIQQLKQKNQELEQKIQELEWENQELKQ

4H3381-bN = target: T26, 4H3381-bN
T26 chain: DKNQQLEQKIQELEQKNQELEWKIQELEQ

4H2931-bN = target: T27, 4H2931-bN
T27 chain: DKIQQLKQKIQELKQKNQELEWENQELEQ

4H2444-bN = target: T28, 4H2444-bN
T28 chain: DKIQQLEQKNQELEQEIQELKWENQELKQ

4H349-bN = target: T29, 4H349-bN
T29 chain: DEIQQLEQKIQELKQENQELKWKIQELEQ

4H2760-bN = target: T30, 4H2760-bN
T30 chain: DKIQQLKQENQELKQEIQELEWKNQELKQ

4H949-bN = target: T31, 4H949-bN
T31 chain: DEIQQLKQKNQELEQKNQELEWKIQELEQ

4H3364-bN = target: T32, 4H3364-bN
T32 chain: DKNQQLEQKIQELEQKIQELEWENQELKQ

4H2859-bN = target: T33, 4H2859-bN
T33 chain: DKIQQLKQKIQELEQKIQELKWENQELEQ

4H2585-bN = target: T34, 4H2585-bN
T34 chain: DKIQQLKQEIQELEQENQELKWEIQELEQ

4H796-bN = target: T35, 4H796-bN
T35 chain: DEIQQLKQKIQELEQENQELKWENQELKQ

P7A-bS = target: T36, P7A-bS
T36 chain: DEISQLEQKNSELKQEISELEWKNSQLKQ

P3A-bS = target: T37, P3A-bS
T37 chain: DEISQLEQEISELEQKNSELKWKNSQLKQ

P6A-bS = target: T38, P6A-bS
T38 chain: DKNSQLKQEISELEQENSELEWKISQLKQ

P9A-bS = target: T39, P9A-bS
T39 chain: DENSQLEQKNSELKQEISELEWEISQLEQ

P8A-bS = target: T40, P8A-bS
T40 chain: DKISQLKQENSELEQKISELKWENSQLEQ

P5A-bS = target: T41, P5A-bS
T41 chain: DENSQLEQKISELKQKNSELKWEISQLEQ

P2A-bS = target: T42, P2A-bS
T42 chain: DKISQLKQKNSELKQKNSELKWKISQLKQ

P4A-bS = target: T43, P4A-bS
T43 chain: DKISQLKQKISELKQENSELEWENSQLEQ

B1: P2A-bP (peptide)
chain: DKIKQLKQKNQRLKQKNQRLKWKIQKLKQ
interaction score (P4A-bP): -1.81 | interaction score (P3A-bP): -1.2 | interaction score (P5A-bP): -1.71 | interaction score (P9A-bP): -0.913 | interaction score (P6A-bP): -0.533 | interaction score (P2A-bP): 0.0236 | interaction score (P7A-bP): -2.54 | interaction score (P8A-bP): -0.672

B2: 4H2745-bA (peptide)
chain: DKIAQLKQENAELEQKNAELKWEIAQLEQ
interaction score (4H3974-bA): 0 | interaction score (4H3907-bA): -1.14 | interaction score (4H470-bA): 2.34 | interaction score (4H363-bA): -1.18 | interaction score (4H344-bA): 0.257 | interaction score (4H2745-bA): -0.711 | interaction score (4H3961-bA): -1.18 | interaction score (P1mSN): -0.547

B3: 4H2253-bN (peptide)
chain: DKIQQLEQENQELKQEIQELKWKIQELEQ
interaction score (4H235-bN): -0.204 | interaction score (4H2253-bN): 1.16 | interaction score (4H56-bN): -0.248 | interaction score (4H3297-bN): 0.232 | interaction score (4H2518-bN): 0.436 | interaction score (4H264-bN): 0.574 | interaction score (4H730-bN): -0.523 | interaction score (4H3041-bN): -0.989 | interaction score (4H932-bN): -0.7 | interaction score (4H3381-bN): -0.558 | interaction score (4H2931-bN): -0.437 | interaction score (4H2444-bN): 0.131 | interaction score (4H349-bN): -0.821 | interaction score (4H2760-bN): 0.286 | interaction score (4H949-bN): -0.506 | interaction score (4H3364-bN): -1.32 | interaction score (4H2859-bN): -0.113 | interaction score (4H2585-bN): -1.66 | interaction score (4H796-bN): -1.07

B4: P2A-bS (peptide)
chain: DKISQLKQKNSELKQKNSELKWKISQLKQ
interaction score (P7A-bS): -0.792 | interaction score (P3A-bS): -0.857 | interaction score (P6A-bS): -1.71 | interaction score (P9A-bS): -0.777 | interaction score (P8A-bS): -0.742 | interaction score (P5A-bS): -0.924 | interaction score (P2A-bS): -1.36 | interaction score (P4A-bS): -0.497
